Data on 2 molecules can be found in patent US20250027060A1 (VIB VZW, published 2025).

The target in assay [1] is T1, LTKTG-EGFL (human LTK amino acids 63-420) (human, UniProt P29376 63-420).
T1 construct: Fc-His6 tag removed by caspase 3; also called LTK (in BLI, SEC-MALLS and ITC)
T1 sequence: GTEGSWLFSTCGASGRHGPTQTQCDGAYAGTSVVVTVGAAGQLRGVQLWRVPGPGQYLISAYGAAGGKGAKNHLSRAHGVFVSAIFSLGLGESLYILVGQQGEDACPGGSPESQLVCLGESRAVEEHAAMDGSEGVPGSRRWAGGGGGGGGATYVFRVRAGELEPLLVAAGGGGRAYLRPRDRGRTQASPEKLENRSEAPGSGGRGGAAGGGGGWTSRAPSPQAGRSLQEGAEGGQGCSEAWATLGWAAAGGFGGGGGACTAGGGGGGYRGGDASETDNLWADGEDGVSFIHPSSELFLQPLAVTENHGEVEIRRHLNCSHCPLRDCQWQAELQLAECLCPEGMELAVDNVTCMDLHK
The assay can be described thus: BLI, biotinylated ALKAL2 H100A on streptavidin biosensors, LTKTG-EGFL in solution, dilution series 6.4 µM-400 nM, biphasic fit, component 2. An excerpt:
(§1) FIGS. 10A and 10B Representative response curves as measure by biolayer-interferometry (BLI) for the interaction of WT ALKAL1 and ALKAL1 mutants (containing charge-reversal mutations of residues involved in site 1) (FIG. 10A) and WT ALKAL2 and ALKAL2 mutants (FIG. 10B) with ALK_TG-EGFL and LTK_TG-EGFL. For WT ALKALs LTK curves were fitted with a 2:1 binding model (red) while for ALK a 1:1 model was used. Start and end concentrations of the 3-fold dilution series used for the WT measurements is shown as an inset while for all mutants a […] dilution series from 6.4 μM-400 nM was used.
(§2) All measurements of binding kinetics and dissociation constants were performed using an Octet Red 96 (Forté Bio) in assay buffer (20 mM HEPES pH 7.4, 150 mM NaCl, 0.02% (w/v) BSA, 0.002% (v/v) Tween 20) at 298K. ALKALs were immobilized to a level of 0.5 nm on streptavidin-coated biosensors (Forté Bio). To verify that no a specific binding was present during the assay, non-functionalized biosensors were used as a control by measuring in parallel all ligand concentrations as well as running buffer. For all mutants a two-fold dilution series from 6.4 μM-400 nM was employed. Data analysis was performed using the Data Analysis software 9.0.0.14 (Forté Bio) and binding curves were exported to Prism8 (Graphpad Software) for plotting of curves.

The target of assay [2] is T1, LTKTG-EGFL (human LTK amino acids …). The assay can be described thus: BLI, biotinylated ALKAL2 H100A on streptavidin biosensors, LTKTG-EGFL in solution, dilution series 6.4 µM-400 nM, biphasic fit, component 2; the sheet prints x0^-1, taken as x10^-1.
Excerpt: as §1, §2
For orientation: Biolayer interferometry detects binding as a change in optical thickness at a sensor tip.

For assay [3] the target is unchanged. Nature of the assay: BLI, biotinylated ALKAL2 H100A on streptavidin biosensors, LTKTG-EGFL in solution, dilution series 6.4 µM-400 nM, biphasic fit, component 1.
Excerpt: as §1, §2

For assay [4] the target is unchanged. The assay can be described thus: BLI, biotinylated ALKAL2 R123E on streptavidin biosensors, LTKTG-EGFL in solution, dilution series 6.4 µM-400 nM.
Excerpt: as §1, §2

Assay [5] has as its target T2, ALKTG-EGFL (human ALK amino acids 648-1025) (human, UniProt Q9UM73 648-1025, N-linked glycans; EndoH-trimmed (deglycosylated) for crystals and SEC-MALLS).
T2 construct: The C-terminal Fc-His6 tag was removed by caspase 3; also called ALK (in BLI, SEC-MALLS and ITC)
The assay can be described thus: BLI, biotinylated ALKAL2 R123E on streptavidin biosensors, ALKTG-EGFL in solution, dilution series 6.4 µM-400 nM.
Excerpt: as §1, §2

T2 sequence (Q9UM73 648-1025): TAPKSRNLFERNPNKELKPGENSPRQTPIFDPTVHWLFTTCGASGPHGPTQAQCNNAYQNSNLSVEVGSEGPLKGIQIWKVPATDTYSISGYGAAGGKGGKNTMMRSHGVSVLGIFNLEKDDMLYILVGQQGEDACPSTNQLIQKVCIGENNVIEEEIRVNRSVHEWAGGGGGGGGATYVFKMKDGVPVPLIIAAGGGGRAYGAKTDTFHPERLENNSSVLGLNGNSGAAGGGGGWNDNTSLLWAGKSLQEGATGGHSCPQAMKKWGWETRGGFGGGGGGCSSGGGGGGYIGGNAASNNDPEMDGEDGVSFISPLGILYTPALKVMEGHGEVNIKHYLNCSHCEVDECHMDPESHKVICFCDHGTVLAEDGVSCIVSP

B1: ALKAL2^H100A (residues 78-152) (ligand, human, UniProt Q6UX46 78-152, looked up)
chain: PSPEQRVEIVPRDLRMKDKFLKALTGPLYFSPKCSKHFHRLYHNTRDCTIPAYYKRCARLLTRLAVSPVCMEDKQ
notes: range 78-152; Avi-tagged and biotinylated in BLI; also called ALKAL2 site 2 mutant H100A
In assay [1], B1 returned a Kd of 3000 nM and an on-rate constant (kon) of 53000 M⁻¹ s⁻¹. The koff in assay [2] was 0.16 s⁻¹. Also, in assay [3], the Kd came out at 280 nM, the koff came to 0.00082 s⁻¹ and the kon came out at 2900 M⁻¹ s⁻¹.

B2: ALKAL2^R123E (residues 78-152) (ligand, human, UniProt Q6UX46 78-152, looked up)
chain: PSPEQRVEIVPRDLRMKDKFLKHLTGPLYFSPKCSKHFHRLYHNTEDCTIPAYYKRCARLLTRLAVSPVCMEDKQ
notes: range 78-152; also called ALKAL2 site 1 mutant R123E
In the case of B2, the Kd in assay [4] worked out at 2300 nM; in assay [5] it was 3500 nM.

Broadly, the Kd is the constant that tells how readily two partners part at equilibrium. The low end stands for tighter binding, the high end for weaker binding. By kon is commonly meant a measure of how fast the partners come together. Broadly, the koff is a measure of how fast the partners let go of each other. Low values mean slow dissociation, high ones fast dissociation.
